Article PMC2806950, “Dissection of the DNA Mimicry of the Bacteriophage T7 Ocr Protein using Chemical Modification” (Journal of Molecular Biology, 2009)

Key:
Details in all cases: both partners purified
[1] = target: T1, M.EcoKI, DNA methyltransferase component (M2S1) of the EcoKI type I R/M system (E. coli K12, UniProt P08957 1-529; P05719 1-464); experiment: ITC; as the Tris experiment but 20 mM Hepes in place of Tris-HCl, 25 °C, no NaCl
T1 construct: M subunit (DNA methyltransferase activity) of the EcoKI type I R/M system of E. coli K12; also called methyltransferase core; copies: 2 + 1
T1 sequence (looked up) 1: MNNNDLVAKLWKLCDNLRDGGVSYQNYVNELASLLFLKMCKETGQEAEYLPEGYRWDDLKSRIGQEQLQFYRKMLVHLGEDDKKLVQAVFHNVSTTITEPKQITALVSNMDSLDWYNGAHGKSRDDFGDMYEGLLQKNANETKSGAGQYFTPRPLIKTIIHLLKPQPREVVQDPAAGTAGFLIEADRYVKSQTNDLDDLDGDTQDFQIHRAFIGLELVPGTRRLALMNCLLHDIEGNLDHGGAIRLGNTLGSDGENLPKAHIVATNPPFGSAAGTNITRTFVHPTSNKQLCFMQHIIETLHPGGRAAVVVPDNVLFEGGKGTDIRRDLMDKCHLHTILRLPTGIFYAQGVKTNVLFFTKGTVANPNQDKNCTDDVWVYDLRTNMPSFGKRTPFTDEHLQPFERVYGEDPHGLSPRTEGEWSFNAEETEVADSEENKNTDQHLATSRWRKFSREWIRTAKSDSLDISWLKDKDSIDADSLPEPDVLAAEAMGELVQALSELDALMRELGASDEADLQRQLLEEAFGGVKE
T1 sequence (looked up) 2: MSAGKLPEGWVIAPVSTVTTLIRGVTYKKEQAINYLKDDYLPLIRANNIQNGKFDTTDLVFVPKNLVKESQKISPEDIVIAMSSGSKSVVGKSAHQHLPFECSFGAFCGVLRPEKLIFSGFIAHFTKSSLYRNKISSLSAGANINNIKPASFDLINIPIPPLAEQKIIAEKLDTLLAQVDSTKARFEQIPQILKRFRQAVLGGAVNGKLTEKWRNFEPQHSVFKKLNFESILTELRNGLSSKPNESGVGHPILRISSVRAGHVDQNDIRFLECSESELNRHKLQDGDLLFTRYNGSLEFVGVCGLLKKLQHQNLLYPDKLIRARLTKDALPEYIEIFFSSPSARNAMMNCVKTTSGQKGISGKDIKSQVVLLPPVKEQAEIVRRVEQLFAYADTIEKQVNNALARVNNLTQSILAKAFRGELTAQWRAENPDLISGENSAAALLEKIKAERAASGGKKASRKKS

[2] = target: T1, M.EcoKI, DNA methyltransferase …; experiment: fluorescence polarisation; competition with DNA: M.EcoKI titrated into 50 nM Ocr and 2 nM of a 21-bp DNA duplex fluorescently labelled at the 5' end; anisotropy of the DNA monitored
[3] = target: T1, M.EcoKI, DNA methyltransferase …; experiment: ITC; Ocr (typically 40 uM) titrated into M.EcoKI (4 uM); 20 mM Tris-HCl pH 8.0, 6 mM MgCl2, 7 mM 2-mercaptoethanol, 100 uM SAM, with or without 500 mM NaCl; 10 to 30 °C

B1: Ocr (overcome classical restriction) protein of bacteriophage T7, unmodified (natural protein, UniProt P03775 1-117, looked up)
chain: MAMSNMTYNNVFDHAYEMLKENIRYDDIRDTDDLHDAIHMAADNAVPHYYADIFSVMASEGIDLEFEDSGLMPDTKDVIRILQARIYEQLTIDLWEDAEDLLNEYLEEVEEYEEDEE
notes: Ocr, product of gene 0.3 of bacteriophage T7; 116-amino-acid monomer as printed; Homodimer; also called WT; wild type Ocr; source: plasmid pAR2993 with the gene encoding WT Ocr
dH [1]: -21.5 kcal/mol
Kd [2]: 0.044 nM
dH [3]: -20.6 kcal/mol
stoichiometry N [3]: 1 Ocr dimer per molecule of M.EcoKI
